Test: In vivo uptake and tissue distribution of 125I-TGFα from TJ-TGFα formulation on wounded cheek pouch
Set-up: species or system Golden Syrian hamsters
Conditions: for Distribution of 125I-TGFα in the Tissues: Skin: 25 cm^2 skin on back; for Distribution of 125I-TGFα in the Tissues: Blood / Distribution of 125I-TGFα in the Tissues: Cecum / Distribution of 125I-TGFα in the Tissues: Colon / Distribution of 125I-TGFα in the Tissues: Esophagus / Distribution of 125I-TGFα in the Tissues: Kidney / Distribution of 125I-TGFα in the Tissues: Liver / Distribution of 125I-TGFα in the Tissues: Small Intestine / Distribution of 125I-TGFα in the Tissues: Stomach / Distribution of 125I-TGFα in the Tissues: Submaxillary Gland / Distribution of 125I-TGFα in the Tissues: Thyroid / Distribution of 125I-TGFα in the Tissues: Tongue: cheek pouch wound; for Distribution of 125I-TGFα in the Tissues: Cheek Pouch: right-hand side cheek pouch (application site)
From the text: The TGFα-containing ointment composition of Example 2 (TJ-TGFα formulation) was subjected, both in vitro and in vivo, to evaluation to meet the therapeutical requirements for oral mucositis. The in vitro evaluation included TGFα release and extraction from the composition, autoclave sterilizability and the bioactivity and stability of TGFα in the composition. The in vivo evaluation included TGFα uptake and tissue distribution of absorbed TGFα from hamster's cheek pouch.
B. The in vivo uptake of TGFα from the TJ-TGFα formulation was determined in Golden Syrian hamsters, female, approximately 150 g using an ^125 I-TGFα formulation (specific activity-45 μci/μg), the hamster's cheek pouch having a mechanically created wound. A pharmacokinetic study of tissue distribution of TGFα absorbed by the hamsters was also conducted. The methods employed were as follows:
1. Fast hamsters overnight.
2. Anesthetize hamsters by I.M. injection of ketamine HCl.
3. Create a 2 mm diameter wound on the right-hand side of hamster's cheek pouch by a biopsy punch.
4. Following the removal of the debridement and blood clot, administer 20 μl TJ-TGFα formulation containing 26 μci 125I-TGFα onto the wound area by a Gilson Microman.
5. Keep the hamsters in their cages and give no water or food during the course of 6 hours study.
6. Select three hamsters at time 15 minutes, 30 minutes, 1 hour, 2 hours, 4 hours and 6 hours and select one hamster at 24 hours for TGFα uptake and tissue distribution study.
7. Punch a needle into the hamster's heart and withdrawn 1 ml blood by a 5 ml syringe.
8. Sacrifice hamster by inhalation of an overdose of carbon dioxide vapor from dry ice in a closed chamber.
9. Immediately after sacrificing, remove the liver, kidney, thyroid, submaxillary gland, esophagus, stomach, small intestine, cecum, colon, 25 cm^2 skin on back, tongue and right-hand side of cheek pouch.
11. Count the CPM of ^125 I-TGFα that distributed in the hamster's tissue and GI contents.

Substance: ^125 I-TGFα: 125I-labelled TGFα (specific activity 45 μci/μg) administered in TJ-TGFα formulation onto the hamster cheek pouch wound
- Distribution of 125I-TGFα in the Tissues: Skin (15 min.): 0.04%
- Distribution of 125I-TGFα in the Tissues: Blood (15 min.): 0.01%
- Distribution of 125I-TGFα in the Tissues: Cecum (15 min.): 0.303%
- Distribution of 125I-TGFα in the Tissues: Colon (15 min.): 0.01%
- Distribution of 125I-TGFα in the Tissues: Esophagus (15 min.): 0.001%
- Distribution of 125I-TGFα in the Tissues: Kidney (15 min.): 0.02%
- Distribution of 125I-TGFα in the Tissues: Liver (15 min.): 0.03%
- Distribution of 125I-TGFα in the Tissues: Small Intestine (15 min.): 0.01%
- Distribution of 125I-TGFα in the Tissues: Stomach (15 min.): 0.01%
- Distribution of 125I-TGFα in the Tissues: Submaxillary Gland (15 min.): 0.02%
- Distribution of 125I-TGFα in the Tissues: Thyroid (15 min.): 0.005%
- Distribution of 125I-TGFα in the Tissues: Tongue (15 min.): 0.85%
- Distribution of 125I-TGFα in the Tissues: Cheek Pouch (15 min.): 76%
- Distribution of 125I-TGFα in the Tissues: Skin (0.5 hrs.): 0.06%
- Distribution of 125I-TGFα in the Tissues: Blood (0.5 hrs.): 0.02%
- Distribution of 125I-TGFα in the Tissues: Cecum (0.5 hrs.): 0.01%
- Distribution of 125I-TGFα in the Tissues: Colon (0.5 hrs.): 0.02%
- Distribution of 125I-TGFα in the Tissues: Esophagus (0.5 hrs.): 0.01%
- Distribution of 125I-TGFα in the Tissues: Kidney (0.5 hrs.): 0.07%
- Distribution of 125I-TGFα in the Tissues: Liver (0.5 hrs.): 0.07%
- Distribution of 125I-TGFα in the Tissues: Small Intestine (0.5 hrs.): 0.05%
- Distribution of 125I-TGFα in the Tissues: Stomach (0.5 hrs.): 0.03%
- Distribution of 125I-TGFα in the Tissues: Submaxillary Gland (0.5 hrs.): 0.05%
- Distribution of 125I-TGFα in the Tissues: Thyroid (0.5 hrs.): 0.02%
- Distribution of 125I-TGFα in the Tissues: Tongue (0.5 hrs.): 3.13%
- Distribution of 125I-TGFα in the Tissues: Cheek Pouch (0.5 hrs.): 30%
- Distribution of 125I-TGFα in the Tissues: Skin (1 hr.): 0.03%
- Distribution of 125I-TGFα in the Tissues: Blood (1 hr.): 0.04%
- Distribution of 125I-TGFα in the Tissues: Cecum (1 hr.): 0.02%
- Distribution of 125I-TGFα in the Tissues: Colon (1 hr.): 0.04%
- Distribution of 125I-TGFα in the Tissues: Esophagus (1 hr.): 0.01%
- Distribution of 125I-TGFα in the Tissues: Kidney (1 hr.): 0.07%
- Distribution of 125I-TGFα in the Tissues: Liver (1 hr.): 0.09%
- Distribution of 125I-TGFα in the Tissues: Small Intestine (1 hr.): 0.04%
- Distribution of 125I-TGFα in the Tissues: Stomach (1 hr.): 0.05%
- Distribution of 125I-TGFα in the Tissues: Submaxillary Gland (1 hr.): 0.04%
- Distribution of 125I-TGFα in the Tissues: Thyroid (1 hr.): 0.02%
- Distribution of 125I-TGFα in the Tissues: Tongue (1 hr.): 4.82%
- Distribution of 125I-TGFα in the Tissues: Cheek Pouch (1 hr.): 70%
- Distribution of 125I-TGFα in the Tissues: Skin (2 hrs.): 0.10%
- Distribution of 125I-TGFα in the Tissues: Blood (2 hrs.): 0.05%
- Distribution of 125I-TGFα in the Tissues: Cecum (2 hrs.): 0.06%
- Distribution of 125I-TGFα in the Tissues: Colon (2 hrs.): 0.06%
- Distribution of 125I-TGFα in the Tissues: Esophagus (2 hrs.): 0.01%
- Distribution of 125I-TGFα in the Tissues: Kidney (2 hrs.): 0.14%
- Distribution of 125I-TGFα in the Tissues: Liver (2 hrs.): 0.17%
- Distribution of 125I-TGFα in the Tissues: Small Intestine (2 hrs.): 0.07%
- Distribution of 125I-TGFα in the Tissues: Stomach (2 hrs.): 0.10%
- Distribution of 125I-TGFα in the Tissues: Submaxillary Gland (2 hrs.): 0.20%
- Distribution of 125I-TGFα in the Tissues: Thyroid (2 hrs.): 0.14%
- Distribution of 125I-TGFα in the Tissues: Tongue (2 hrs.): 3.57%
- Distribution of 125I-TGFα in the Tissues: Cheek Pouch (2 hrs.): 74%
- Distribution of 125I-TGFα in the Tissues: Skin (4 hrs.): 0.14%
- Distribution of 125I-TGFα in the Tissues: Blood (4 hrs.): 0.13%
- Distribution of 125I-TGFα in the Tissues: Cecum (4 hrs.): 0.04%
- Distribution of 125I-TGFα in the Tissues: Colon (4 hrs.): 0.13%
- Distribution of 125I-TGFα in the Tissues: Esophagus (4 hrs.): 0.26%
- Distribution of 125I-TGFα in the Tissues: Kidney (4 hrs.): 0.23%
- Distribution of 125I-TGFα in the Tissues: Liver (4 hrs.): 0.26%

Reference: patent publication US5578310A, “Topical bioadhesive ointment compositions and their use in wound healing” (Berlex Laboratories Inc., priority 1994, dated 1996)
